Positions count from the first letter of the chain named.

Consider 26 molecules from patent US20160002357A1 (Pfizer, published 2016).

The assay deals with T1, P-cadherin-ECD1-3-Fc protein (human P-cadherin-Fc) (human, UniProt P22223 108-440).
T1 construct: Construct was expressed with signal peptide and pro-peptide (PACE co-transfected to process the propeptide); not shown: hinge and CH2 and CH3 domains of human IgG1
The experiment in a line: phage scFv ELISA, coated P-cadherin-ECD1-3-Fc. As to the method:
ScFvs may be expressed on the surface of a phage particle. To prepare phage expressing scFv on their surface, 96-deep well plates containing 1 mL 2× TY media with 2% glucose/100 μg/mL ampicillin were inoculated with 0.5-1 μL from thawed glycerol stocks (one clone per well) using the QPix™2 Colony picker (Molecular Devices, Sunnyvale Calif.) and grown at 37° C. (900 rpm) for ˜4 hours. Next, 5 μL of a 1:29 dilution of helper phage (8.3×10¹³ pfu) was added and the plates and incubated for a further 30 minutes at 37° C. with no shaking then 1 hour at 300 rpm. Plates were centrifuged and the media was replaced with a kanamycin/non-glucose containing media (2× TY with 50 μg/mL kanamycin and 100 μg/mL ampicillin). Plates were grown overnight at 25° C. (900 rpm), and phage were harvested in the supernatant following centrifugation.
P-cadherin-ECD1-3-Fc protein or negative control protein was coated overnight at 4° C. on 96-well Nunc Maxisorp® plates (Thermo Fisher Scientific, Madison, Conn.) at a concentration of 2 μg/mL in PBS+Ca²⁺ and Mg²⁺. Plates were washed three times using PBS+Ca²⁺ and Mg²⁺ and blocked for 1 hour at room temperature in 3% milk/PBS+Ca²⁺ and Mg²⁺. Phage samples prepared as described above were added to the blocked plates for 1 hour at room temperature. Plates were washed three times with PBS+Ca²⁺ and Mg²⁺ prior to the addition of secondary antibody (anti M13-HRP 1:2000, GE Healthcare, Piscataway, N.J.). Plates were incubated for a further 1 hour at room temperature and washed six times with PBS+Ca²⁺ and Mg²⁺. Signal was developed using TMB (SurModics, Eden Prairie, Minn.), the reaction stopped with H₂SO₄ and the absorbance read at 450 nm on an EnVision® plate reader (Perkin Elmer, Waltham, Mass.).

T1 sequence (P22223 108-440): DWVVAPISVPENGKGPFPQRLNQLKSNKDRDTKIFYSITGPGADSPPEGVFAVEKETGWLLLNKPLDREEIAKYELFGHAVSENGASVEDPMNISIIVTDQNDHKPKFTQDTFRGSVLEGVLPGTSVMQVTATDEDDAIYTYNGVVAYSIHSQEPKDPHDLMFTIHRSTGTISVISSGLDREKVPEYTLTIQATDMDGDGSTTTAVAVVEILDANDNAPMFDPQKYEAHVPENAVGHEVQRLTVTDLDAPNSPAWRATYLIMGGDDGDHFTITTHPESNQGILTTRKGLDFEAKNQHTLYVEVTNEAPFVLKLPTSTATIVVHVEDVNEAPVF

B1: anti-P-cadherin scFv 153 alanine-mutant L1.5-Ala (scFv, V domains shown)
VH: EVQLVQSGAEVKKPGASVKVSCKASGYTFTSYGISWVRQAPGQGLEWMGWISAYNGNTNYAQKLQGRVTMTTDTSTSTAYMELRSLRSDDTAVYYCATIDTANAFGIWGQGTMVTVSS
VL: QSVLTQPPSVSAAPGQKVTISCSGSSANIGNNYVSWYQQLPGTAPKLLIYDNNKRPSGIPDRFSGSKSGTSATLGITGLQTGDEADYYCGTWDSSLSGVVFGGGTKLTVL
notes: scFv on phage
Consider B1, for which the “% of binding of Clone #153 to human P-cadherin-Fc” value worked out at 129%, the “Human P-cadherin-Fc binding (OD450)” value turned out to be 1.7 OD450 and the “Z Score” value was determined as 0.6.

B2: anti-P-cadherin scFv 153 alanine-mutant L3.7-Ala (scFv, V domains shown)
VH: B1 VH
VL: B1 VL with A27S, L96A
notes: scFv on phage
Turning to B2, the “% of binding of Clone #153 to human P-cadherin-Fc” value worked out at 173%, the “Human P-cadherin-Fc binding (OD450)” value was 2.29 OD450 and the “Z Score” value is 1.6.

B3: anti-P-cadherin scFv 153 alanine-mutant L3.4-Ala (scFv, V domains shown)
VH: B1 VH
VL: B1 VL with A27S, D93A
notes: scFv on phage
Turning to B3, the “% of binding of Clone #153 to human P-cadherin-Fc” value came out at 70%, the “Human P-cadherin-Fc binding (OD450)” value was found to be 0.92 OD450 and the “Z Score” value was -0.6.

B4: anti-P-cadherin scFv 153 alanine-mutant L3.10-Ala (scFv, V domains shown)
VH: B1 VH
VL: B1 VL with A27S, V99A
notes: scFv on phage
On to B4, for which the “% of binding of Clone #153 to human P-cadherin-Fc” value turned out to be 141%, the “Human P-cadherin-Fc binding (OD450)” value turned out to be 1.86 OD450 and the “Z Score” value came out at 0.9.

B5: anti-P-cadherin scFv 153 alanine-mutant L2.3-Ala (scFv, V domains shown)
VH: B1 VH
VL: B1 VL with A27S, N53A
notes: scFv on phage
Consider B5, for which the “% of binding of Clone #153 to human P-cadherin-Fc” value is 74%, the “Human P-cadherin-Fc binding (OD450)” value was determined as 0.98 OD450 and the “Z Score” value is -0.5.

B6: anti-P-cadherin scFv 153 alanine-mutant L3.3-Ala (scFv, V domains shown)
VH: B1 VH
VL: B1 VL with A27S, W92A
notes: scFv on phage
Take B6: the “% of binding of Clone #153 to human P-cadherin-Fc” value came out at 14%, the “Human P-cadherin-Fc binding (OD450)” value stood at 0.18 OD450 and the “Z Score” value is -1.8.

B7: anti-P-cadherin scFv 153 alanine-mutant L2.6-Ala (scFv, V domains shown)
VH: B1 VH
VL: B1 VL with A27S, P56A
notes: scFv on phage
In the case of B7, the “% of binding of Clone #153 to human P-cadherin-Fc” value came out at 172%, the “Human P-cadherin-Fc binding (OD450)” value is 2.28 OD450 and the “Z Score” value came out at 1.5.

B8: anti-P-cadherin scFv 153 alanine-mutant L1.12-Ala (scFv, V domains shown)
VH: B1 VH
VL: B1 VL with A27S, V34A
notes: scFv on phage
Consider B8, for which the “% of binding of Clone #153 to human P-cadherin-Fc” value came to 173%, the “Human P-cadherin-Fc binding (OD450)” value came to 2.29 OD450 and the “Z Score” value worked out at 1.6.

B9: anti-P-cadherin scFv 153 alanine-mutant L3.9-Ala (scFv, V domains shown)
VH: B1 VH
VL: B1 VL with A27S, G98A
notes: scFv on phage
Regarding B9, the “% of binding of Clone #153 to human P-cadherin-Fc” value worked out at 166%, the “Human P-cadherin-Fc binding (OD450)” value came out at 2.19 OD450 and the “Z Score” value was determined as 1.4.

B10: anti-P-cadherin scFv 153 alanine-mutant L3.2-Ala (scFv, V domains shown)
VH: B1 VH
VL: B1 VL with A27S, T91A
notes: scFv on phage
Take B10: the “% of binding of Clone #153 to human P-cadherin-Fc” value is 61%, the “Human P-cadherin-Fc binding (OD450)” value was determined as 0.81 OD450 and the “Z Score” value was -0.8.

B11: anti-P-cadherin scFv 153 alanine-mutant L1.11-Ala (scFv, V domains shown)
VH: B1 VH
VL: B1 VL with A27S, Y33A
notes: scFv on phage
With B11, the “% of binding of Clone #153 to human P-cadherin-Fc” value is 139%, the “Human P-cadherin-Fc binding (OD450)” value worked out at 1.84 OD450 and the “Z Score” value was determined as 0.8.

B12: anti-P-cadherin scFv 153 alanine-mutant L3.8-Ala (scFv, V domains shown)
VH: B1 VH
VL: B1 VL with A27S, S97A
notes: scFv on phage
As to B12, the “% of binding of Clone #153 to human P-cadherin-Fc” value turned out to be 173%, the “Human P-cadherin-Fc binding (OD450)” value is 2.28 OD450 and the “Z Score” value amounted to 1.5.

B13: anti-P-cadherin scFv 153 alanine-mutant L1.7-Ala (scFv, V domains shown)
VH: B1 VH
VL: B1 VL with A27S, I29A
notes: scFv on phage
Consider B13, for which the “% of binding of Clone #153 to human P-cadherin-Fc” value was found to be 108%, the “Human P-cadherin-Fc binding (OD450)” value was found to be 1.42 OD450 and the “Z Score” value came out at 0.2.

B14: anti-P-cadherin scFv 153 alanine-mutant L1.6-Ala (scFv, V domains shown)
VH: B1 VH
VL: B1 VL with A27S, N28A
notes: scFv on phage
B14: the “% of binding of Clone #153 to human P-cadherin-Fc” value was 88%, the “Human P-cadherin-Fc binding (OD450)” value amounted to 1.16 OD450 and the “Z Score” value is -0.3.

B15: anti-P-cadherin scFv 153 alanine-mutant L1.13-Ala (scFv, V domains shown)
VH: B1 VH
VL: B1 VL with A27S, S35A
notes: scFv on phage
For the molecule B15, the “% of binding of Clone #153 to human P-cadherin-Fc” value was determined as 171%, the “Human P-cadherin-Fc binding (OD450)” value is 2.26 OD450 and the “Z Score” value worked out at 1.5.

B16: anti-P-cadherin scFv 153 alanine-mutant L2.5-Ala (scFv, V domains shown)
VH: B1 VH
VL: B1 VL with A27S, R55A
notes: scFv on phage
In the case of B16, the “% of binding of Clone #153 to human P-cadherin-Fc” value was found to be 170%, the “Human P-cadherin-Fc binding (OD450)” value stood at 2.25 OD450 and the “Z Score” value is 1.5.

B17: anti-P-cadherin scFv 153 alanine-mutant L2.1-Ala (scFv, V domains shown)
VH: B1 VH
VL: B1 VL with A27S, D51A
notes: scFv on phage
Take B17: the “% of binding of Clone #153 to human P-cadherin-Fc” value worked out at 110%, the “Human P-cadherin-Fc binding (OD450)” value was 1.45 OD450 and the “Z Score” value was 0.2.

B18: anti-P-cadherin scFv 153 alanine-mutant L2.2-Ala (scFv, V domains shown)
VH: B1 VH
VL: B1 VL with A27S, N52A
notes: scFv on phage
Turning to B18, the “% of binding of Clone #153 to human P-cadherin-Fc” value is 102%, the “Human P-cadherin-Fc binding (OD450)” value turned out to be 1.35 OD450 and the “Z Score” value is 0.

B19: anti-P-cadherin scFv 153 alanine-mutant L3.6-Ala (scFv, V domains shown)
VH: B1 VH
VL: B1 VL with A27S, S95A
notes: scFv on phage
In the case of B19, the “% of binding of Clone #153 to human P-cadherin-Fc” value amounted to 173%, the “Human P-cadherin-Fc binding (OD450)” value is 2.29 OD450 and the “Z Score” value stood at 1.5.

B20: anti-P-cadherin scFv 153 alanine-mutant L3.5-Ala (scFv, V domains shown)
VH: B1 VH
VL: B1 VL with A27S, S94A
notes: scFv on phage
With B20, the “% of binding of Clone #153 to human P-cadherin-Fc” value is 163%, the “Human P-cadherin-Fc binding (OD450)” value worked out at 2.16 OD450 and the “Z Score” value came to 1.3.

B21: anti-P-cadherin scFv 153 alanine-mutant L1.9-Ala (scFv, V domains shown)
VH: B1 VH
VL: B1 VL with A27S, N31A
notes: scFv on phage
Take B21: the “% of binding of Clone #153 to human P-cadherin-Fc” value was determined as 129%, the “Human P-cadherin-Fc binding (OD450)” value is 1.71 OD450 and the “Z Score” value came to 0.6.

B22: anti-P-cadherin scFv 153 alanine-mutant L1.10-Ala (scFv, V domains shown)
VH: B1 VH
VL: B1 VL with A27S, N32A
notes: scFv on phage
As to B22, the “% of binding of Clone #153 to human P-cadherin-Fc” value turned out to be 137%, the “Human P-cadherin-Fc binding (OD450)” value amounted to 1.81 OD450 and the “Z Score” value is 0.8.

B23: anti-P-cadherin scFv 153 alanine-mutant L3.1-Ala (scFv, V domains shown)
VH: B1 VH
VL: B1 VL with A27S, G90A
notes: scFv on phage
Consider B23, for which the “% of binding of Clone #153 to human P-cadherin-Fc” value is 153%, the “Human P-cadherin-Fc binding (OD450)” value stood at 2.02 OD450 and the “Z Score” value came to 1.1.

B24: anti-P-cadherin scFv 153 alanine-mutant L2.4-Ala (scFv, V domains shown)
VH: B1 VH
VL: B1 VL with A27S, K54A
notes: scFv on phage
Turning to B24, the “% of binding of Clone #153 to human P-cadherin-Fc” value turned out to be 161%, the “Human P-cadherin-Fc binding (OD450)” value was 2.13 OD450 and the “Z Score” value was determined as 1.3.

B25: anti-P-cadherin scFv 153 alanine-mutant L2.7-Ala (scFv, V domains shown)
VH: B1 VH
VL: B1 VL with A27S, S57A
notes: scFv on phage
For B25, the “% of binding of Clone #153 to human P-cadherin-Fc” value turned out to be 163%, the “Human P-cadherin-Fc binding (OD450)” value is 2.16 OD450 and the “Z Score” value was 1.3.

B26: anti-P-cadherin scFv 153 alanine-mutant L1.8-Ala (scFv, V domains shown)
VH: B1 VH
VL: B1 VL with A27S, G30A
notes: scFv on phage
For B26, the “% of binding of Clone #153 to human P-cadherin-Fc” value was determined as 75%, the “Human P-cadherin-Fc binding (OD450)” value is 1 OD450 and the “Z Score” value is -0.5.
